Experimental data reported in article PMC4735842.

Target: Cereolysin O (CLO) of Bacillus cereus ATCC 11778 (BC1) (Bacillus cereus ATCC 11778 (endogenous in the culture))
Experiment: SDS-PAGE with Western blot; retentates of BC1 microaerobic culture supernatants (grown with or without 1 g/L BSA, 3 kDa cut-off filter); boiled 5 min in Laemmli buffer with 50 mM DTT; 4-20% Tris-Glycine gel; blot with rabbit anti-streptolysin O antibody

Cereolysin O (CLO) of Bacillus cereus ATCC 11778 (BC1) (natural protein)
stoichiometry N: 2
